According to paper PMC7904846 (2021):

B1: CD105 (natural protein)
chain: ETVHCDLQPVGPERGEVTYTTSQVSKGCVAQAPNAILEVHVLFLEFPTGPSQLELTLQASKQNGTWPREVLLVLSVNSSVFLHLQALGIPLHLAYNSSLVTFQEPPGVNTTELPSFPKTQILEWAAERGPITSAAELNDPQSILLRLGQAQGSLSFCMLEASQDMGRTLEWRPRTPALVRGCHLEGVAGHKEAHILRVLPGHSAGPRTVTVKVELSCAPGDLDAVLILQGPPYVSWLIDANHNMQIWTTGEYSFKIFPEKNIRGFKLPDTPQGLLGEARMLNASIVASFVELPLASIVSLHASSCGGRLQTSPAPIQTTPPKDTCSPELLMSLIQTKCADDAMTLVLKKELVAHLKCTITGLTFWDPSCEAEDRGDKFVLRSAYSSCGMQVSASMISNEAVVNILSSSSPQRKKVHCLNMDSLSFQLGLYLSPHFLQASNTIEPGQQSFVQVRVSPSVSEFLLQLDSCHLDLGPEGGTVELIQGRAAKGNCVSLLSPSPEGDPRFSFLLHFYTVPIPKTGTLSCTVALRPKTGSQDQEVHRTVFMRLNIISPDLSGCTSKGLVLPAVLGITFGAFLIGALLTAALWYIYSHTRSPSKREPVVAVAAPASSESSSTNHSIGSTQSTPCSTSSMA

What was measured:
Assay in all cases: SPR
CD105 [1] = target: B1
CD105 [2] = target: B1
C59 = target: C59
C86 = target: C86
C168 = target: C168
C50 = target: C50
C68 = target: C68

Binder | Kd (CD105 [1]) [nM] | koff (CD105 [2]) [s⁻¹] | Kd (C59) [nM] | koff (C59) [s⁻¹] | Kd (C86) [nM] | koff (C86) [s⁻¹] | Kd (C168) [nM] | koff (C168) [s⁻¹] | Kd (C50) [nM] | koff (C50) [s⁻¹] | Kd (C68) [nM] | koff (C68) [s⁻¹]
Nb C184 (VHH) VHH: QVQLQESGGGSVQAGGSLRLSCVASGYTVSRGYMGWFRQAPGKEREAVAAIRTGSGSTYYADSVKGRFTISQDNAKNTVYLQMNSLKHEDTGMYYCAASLWYGGNWQSWGSYNYWGQGTQVTVSS | 44.7 | 0.00188 | – | – | – | – | – | – | – | – | – | –
B1 | – | – | 65.9 | 0.00255 | 42.6 | 0.00144 | 89 | 0.00391 | 16.2 | 0.00132 | 28.9 | 0.00171
